# Experimental data as given in patent publication US7960140B2, “Avidin mutants” (Orion Diagnostica Oy, priority 2003, dated 2011).
# Where two headings read alike, the source gives them in different places.
# How the values were obtained:
# [1] = IAsys optical biosensor binding to immobilised 2-iminobiotin; conditions: for kass / kdiss: 2-iminobiotin surface, 50 mM borate pH 9.5, 1 M NaCl, 20° C.; for Kd: 2-iminobiotin
# Experimental: Reversibility of biotin binding and affinity towards 2-iminobiotin were determined with an IAsys optical biosensor (Affinity Sensors, Cambridge, UK) (Table 1.) as described in detail by Marttila et. al. (Marttila, A. T. et al. FEBS Lett 441, 313-7 (1998)). Briefly, The 2-iminobiotin ligand was immobilized onto the carboxymethyldextran surface of a cuvette using N-hydroxysuccinimide activation. Binding of various concentrations of avidin or avidin mutants onto 2-iminobiotinylated surface was measured in a 50 mM borate buffer (pH 9.5) containing 1 M NaCl at 20° C. The 2-iminobiotin cuvettes were regenerated with 20 mM HCl. The kinetic rate constants for association (kass) and dissociation (kdiss) were calculated using the Fast Fit program package (Affinity Sensors). The obtained rate constants were used to calculate Kd(rel) according to Kd=kdiss/kass. Equilibrium data obtained from measurements with different protein concentrations were used to calculate the dissociation constant Kd(eq).
# [2] = Reversibility of biotin binding on biotinylated IAsys cuvette surface; conditions: reversibility from biotin surface; biotin 423 μg/ml, one hour
# Experimental: The reversibility of biotin binding was also measured using IAsys apparatus. In the reversibility assay, the sample proteins were allowed to bind to the biotinylated cuvette surface in PBS containing 1 M NaCl. After the equilibrium was reached, the cuvette was filled with PBS, 1 M NaCl containing biotin (423 μg/ml) and the dissociation of the proteins was monitored for one hour.
# [3] = SDS-PAGE-based thermal stability assay; assay type: physicochemical; conditions: for Tr / Tr + btn: Table 2; for Tr: absence of biotin, half of tetramer/pseudo-tetramer broken into monomers; for Tr + btn: presence of biotin; for SDS-PAGE stability assay Tr (−)biotin / SDS-PAGE stability assay Tr (+)biotin: Table 5; for SDS-PAGE stability assay Tr (−)biotin: transition midpoint of oligomeric disassembly, without biotin; for SDS-PAGE stability assay Tr (+)biotin: with biotin
# Experimental: Thermal stability of the mutants was studied by using a SDS-PAGE-based method essentially as described in detail by Bayer et al. (Bayer, E. A. et al. Electrophoresis 17, 1319-1324 (1996)). Briefly, the protein sample in the absence or presence of biotin was diluted to a final concentration of 0.2 mg/mil in 50 mM Na-carbonate buffer, and the proteins were acetylated by adding acetyl NHS ester. Equal amount of SDS-PAGE sample buffer was added to each sample and the protein was incubated at different temperatures (between 25-100° C.) for 20 minutes. After that the samples were subjected to SDS-PAGE analysis and the gel was finally stained with Coomassie brilliant blue. Dissociation of the proteins into their subunits was observed from the gels and the transition temperatures, wherein half of the protein was (pseudo-)tetrameric and half monomeric were determined.
# [4] = Dissociation assay with fluorescent biotin conjugate (ArcDia BF560); assay type: binding; conditions: for Release 1 h / kdiss: 23 ± 1° C.; for Release 1 h: 100-fold molar excess of free biotin; for kdiss: one-phase dissociation model
# Experimental: The biotin-binding properties of produced mutagenised dcAvds were analysed by method based on the quenching of biotin-coupled fluorescent probe ArcDia BF560 (ArcDia Ltd., Turku, Finland) due to binding to avidin (FIG. 4). PerkinElmer LS55 luminometer was used for measurements. […] The spectra of 50 nM biotin-Bf560 solution in 50 mM Na-phosphate containing 650 mM NaCl was measured (red). Chicken avidin (Belovo S. A., Bastogne, Belgium) was added to final subunit concentration of 83 nM and green spectra was obtained.
# Briefly, 50 nM free biotin-Bf560 solution in 50 mM Na-phosphate containing 650 mM NaCl was measured using excitation at 560 nm (2.5 nm slit) and emission was collected at 578 nm (5 nm slit). Continuous stirring (setting low) was used throughout the analysis. After 100 sec measurement, the protein under study was added to final biotin-binding subunit concentration 50 nM and the measurement was continued for 500 sec. […]
# A one-phase dissociation model was used to analyse the data, as described elsewhere (Hytönen et al., (2004) Biochem J, in press). The dissociation rate constant (kdiss) was determined by fitting the equation −kdisst=ln(B/Bo) to the data. Bo is the measured maximum binding (100%) determined as the difference between the fluorescence of the free dye and the fluorescence of the protein-dye complex, and B is the amount of complex measured as a function of time. The first 500 seconds were omitted from the data to abolish the effect of the fast initial phase characteristic of avidin-BF560-biotin interaction (FIG. 9). The fraction of fluorescent biotin released after one-hour was determined, as well as the times of half-maximal (t½) and quarter-maximal (t¼) release. For dual chain avidins with modified binding sites, it was hypothesized that 50% of the binding sites would behave like those of wt avidin (cpAvd5S4 binding site of dcAvd was not modified). The dissociation data measured for wt avidin divided by two was subtracted from the data measured for the modified dual chain avidins and the dissociation curve was fitted to the difference as above.
# [5] = Heat-induced unfolding by DSC; assay type: physicochemical; conditions: for ΔTm: change in Tm upon addition of a three-fold molar excess of biotin; for DSC Tm (+)biotin: three-fold molar excess of biotin; for DSC Tm (−)biotin: without biotin
# [6] = Free biotin-binding sites by quenching of intrinsic fluorescence on biotin titration; conditions: for Fluorescence quenching (350 nm): intrinsic fluorescence, emission 350 nm, due to binding of biotin; for Number of free biotin-binding sites per quaternary unit: protein 500±15 nM, titrated with biotin
# Experimental: The number of free binding sites was determined based on the quenching of the intrinsic fluorescence of avidin due to binding of biotin (Laitinen et al., (2003) J. Biol. Chem. 278, 4010-4014). The protein sample under study diluted to 2 ml volume in 50 mM NaPO4 pH 7.0+650 mM NaCl was titrated with 1 μl additions of 70 μM biotin solution in the same buffer. The protein concentration in this assay was 500±15 nM, and the concentration was determined by comparing the emission intensity averaged over 340-350 nm (excitation at 280 nm) to avidin standard sample. The protein sample was continuously mixed by magnetic stirrer.
# Intensity from each biotin concentration was averaged over eight second measurement. The end-point of the quenching was determined by fitting a line to obtained data and determining the total quenching by averaging the last three measured intensities (FIG. 12, Table 6).
# [7] = Microplate temperature stability assay; assay type: physicochemical; conditions: for activity after 32 min treatment: 80° C.
# Experimental: FIG. 13. Temperature sensitivity determined by microplate assay. The avidin, dcAvd and scAvd sample is treated with the indicated temperature for certain time and the ability to bind biotinylated alkaline phosphatase was determined by coating the microplate with the sample.
# The stability of the protein was studied by microplate assay as described in the article by Nordlund et al., (2003) J Biol Chem 278, 2479-83. In this assay, 50 mM Na—PO4 buffer containing 100 mM NaCl was used and the protein was heated to 80° C. or 90° C. for certain time. After that, the capacity to bind fluorescent biotin was measured as described in the article by Nordlund et al., (2003) J Biol Chem 278, 2479-83.
# [8] = Colorimetric HABA-assay for number of free biotin-binding sites; conditions: average from two independent experiments
# Experimental: The colorimetric HABA-assay was performed essentially as described by Green (Green, N. Methods in Enzymology 18, 418-424 (1970)). Dual-chain avidin (dcAvd) in 100 mM phosphate buffer (pH 7) was saturated with excess HABA and the absorbance was measured at 500 nm with a Beckman DU640 spectrophotometer. After that, excess biotin, which replaces HABA from the binding site, was added to the sample and the absorbance at 500 nm was measured again. The observed change in the absorbance was used to calculate the number of free binding sites in dcAvd.
# The number of biotin-binding sites per dual-chain avidin pseudo-tetramer (is actually a dimer with four binding sites) was determined in a colorimetric HABA-assay according to Green (Green, N. Methods in Enzymology 18, 418-424 (1970)). The average from two independent experiments gave an approximation of 3.3 free biotin-binding sites per dimeric molecule (pseudo-tetramer).
# [9] = calculated from the rate constants (kdiss/kass), read-out: Kd(rel)
# [10] = determined experimentally from the binding curves, read-out: Kd(eq)
molecule,measurement,setting,value
"Avidin: wild-type chicken avidin, homotetramer (SEQ ID NO:1) [reference compound]",kass,[1],(5.5 ± 0.5) × 10^5 M^−1s^−1
same,kdiss,[1],(1.9 ± 1.4) × 10^−3 s^−1
same,Kd,[1]; [9],34 nM
same,Kd,[1]; [10],22 nM
same,reversibility,[2],9%
same,Tr,[3],60 °C
same,Tr + btn,[3],95 °C
same,SDS-PAGE stability assay Tr (−)biotin,[3],60 °C
same,SDS-PAGE stability assay Tr (+)biotin,[3],95 °C
same,Release 1 h,[4],14.1%
same,kdiss,[4],2.3e-05 s⁻¹
same,Dissociation of fluorescent biotin Release 1 h,[4]; 25° C.,14.1%
same,Dissociation of fluorescent biotin kdiss,[4]; 25° C.,2.3e-05 s⁻¹
same,Dissociation of fluorescent biotin Release 1 h,[4]; 50° C.,71.5%
same,Dissociation of fluorescent biotin kdiss,[4]; 50° C.,0.00024 s⁻¹
same,ΔTm,[5],33.5 °C
same,DSC Tm (+)biotin,[5],117.0 ± 0.7 °C
same,DSC Tm (−)biotin,[5],83.5 ± 0.1 °C
same,quenching measured for whole emission spectrum (290-500 nm) due to biotin binding,[6],44.9%
same,Fluorescence quenching (350 nm),[6],47.7%
same,Number of free biotin-binding sites per quaternary unit,[6],3.34
same,Number of free biotin-binding sites per quaternary unit,[6]; listed as avidin,3.3
same,activity after 32 min treatment,[7]; 32 min,82%
same,activity present after 32 min treatment,"[7]; 90° C., 32 min",over 50%
same,heat inactivation,[7]; 100° C.,significantly slower response to the heat treatment
"dcAvd: dual-chain avidin, fusion of cpAvd5→4 and cpAvd6→5 via SGG spacer (SEQ ID NO:2) (protein, listed as Gallus gallus) MVHATSPLLLLLLLSLALVAPGLSARKRTQPTFGFTVNWKFSESTTVFTGQCFIDRNGKEVLKTMWLLRSSVNDIGDDWKATRVGINIFTRLRTQKEGGSGGSARKCSLTGKWTNDLGSNMTIGAVNSRGEFTGTYITAVTATSNEIKESPLHGTQNTINKSGGSTTVFTGQCFIDRNGKEVLKTMWLLRSSVNDIGDDWKATRVGINIFTRLRTQKEGGSGGSARKCSLTGKWTNDLGSNMTIGAVNSRGEFTGTYITAVTATSNEIKESPLHGTQNTINKRTQPTFGFTVNWKFSE",kass,[1],(9.8 ± 1.3) × 10^4 M^−1s^−1
same,kdiss,[1],(1.1 ± 0.5) × 10^−3 s^−1
same,Kd,[1]; [9],110 nM
same,Kd,[1]; [10],41 nM
same,reversibility,[2],8%
same,free biotin-binding sites per dimeric molecule (pseudo-tetramer),[8],~3.3
same,Tr,[3],40 °C
same,Tr + btn,[3],75 °C
same,SDS-PAGE stability assay Tr (−)biotin,[3],40 °C
same,SDS-PAGE stability assay Tr (+)biotin,[3],75 °C
same,Release 1 h,[4],10.1%
same,kdiss,[4],1.4e-05 s⁻¹
same,Dissociation of fluorescent biotin Release 1 h,[4]; 25° C.,10.1%
same,Dissociation of fluorescent biotin kdiss,[4]; 25° C.,1.5e-05 s⁻¹
same,Dissociation of fluorescent biotin Release 1 h,[4]; 50° C.,67.4%
same,Dissociation of fluorescent biotin kdiss,[4]; 50° C.,0.00027 s⁻¹
same,ΔTm,[5],35.7 °C
same,DSC Tm (+)biotin,[5],115.9 °C
same,DSC Tm (−)biotin,[5],80.2 ± 0.0 °C
same,quenching measured for whole emission spectrum (290-500 nm) due to biotin binding,[6],45.1%
same,Fluorescence quenching (350 nm),[6],51.4%
same,Number of free biotin-binding sites per quaternary unit,[6],3.86
same,activity after 32 min treatment,[7]; 32 min,59%
same,heat inactivation,[7]; 90° C.,fast denaturation
same,heat inactivation,[7]; 100° C.,fast inactivation
